Numbering of substitutions follows the chain as printed. No end group written: not given here.
T1: human TREM2 on the cell surface (human, UniProt Q9NZC2 19-230)
T1 sequence: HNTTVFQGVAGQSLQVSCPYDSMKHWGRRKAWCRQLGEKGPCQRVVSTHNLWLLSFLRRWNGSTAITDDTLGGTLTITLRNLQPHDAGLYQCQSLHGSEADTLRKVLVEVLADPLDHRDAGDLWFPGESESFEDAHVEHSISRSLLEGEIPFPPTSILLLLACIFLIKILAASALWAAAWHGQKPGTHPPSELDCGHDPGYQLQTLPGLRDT

T2: human TREM2 full length stalk region peptide (aa 129-172) (human, biotinylated (site not stated))
T2 construct: also called Human TREM2 peptide (aa 129-172); full-length TREM2 stalk peptide
T2 peptide: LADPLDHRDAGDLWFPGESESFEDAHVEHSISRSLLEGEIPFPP

T3: human TREM2 truncated stalk peptide (aa 149-163) (human, also: biotinylated (site not given here))
T3 construct: also called Human TREM2 peptide (aa 149-163); truncated stalk peptide containing the ADAM10/17 cleavage site
T3 peptide: SFEDAHVEHSISRSL

T4: mouse TREM2 full length stalk region peptide (aa 131-169) (mouse, UniProt Q99NH8 131-169, biotinylated (site not stated))
T4 peptide (looked up): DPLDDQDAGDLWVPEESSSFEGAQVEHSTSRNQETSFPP

T5: His-tagged human TREM2 ECD (human, UniProt Q9NZC2 19-172)
T5 construct: Biacore and HDX say only recombinant human TREM2 (ECD); also called recombinant human TREM2; hTREM2
T5 sequence: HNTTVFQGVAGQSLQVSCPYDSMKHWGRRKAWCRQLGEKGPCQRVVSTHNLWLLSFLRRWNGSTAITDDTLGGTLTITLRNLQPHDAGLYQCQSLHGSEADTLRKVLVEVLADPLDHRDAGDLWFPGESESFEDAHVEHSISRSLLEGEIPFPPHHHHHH

B1: CL0020141 (antibody, V domains shown)
VH: EVTLVESGGGLVQPGGSLRLSCATSGFTFTDYYMSWVRQPPGKALEWLGFIRDKANGYTTDYSASVKGRFTISRDNSQNILYLQMNTLRAEDSATYYCSRLLRAQGFAYWGQGTLVTVSA
VL: DIVMSQSPSSLGVSIGEKVIMSCTSGQSLLYSNNQKNYLAWYQQKPGQSPKLLIYWASTRESGVPDRFTGSGSGTDFTLTINSVKAEDLAVYYCQQYYRNPFTFGSGTKLEIK
notes: also called Clone CL0020141
B2: CL0020195 (antibody, V domains shown)
VH: EVQLVESGGGLVQPGRSMMLSCSASGFTFSNYHMAWVRQAPTTGLEWVASITTGSGNTYYRHSVKGRFTISRDNAKSTLYLQMDSLRSEDTASYYCARRWYGGYEGYYFDYWGQGVMVTVSS
VL: DIQMTQSPSLLSASVGDRVTLSCKAGQNVNNYLAWYQQKLGEAPKLLIYNANILQTGFPSRFSGTGSGTDFTLTISSLQPEDVATYFCQQYNSWTTFGGGTKLELK
notes: also called Clone CL0020195
B3: CL0020096 (antibody, V domains shown)
VH: QIQLVQSGPELRKPGETVKISCKASGYTFTTYGMSWVKQAPGKGLKWMGWINTYSGLPRHSDDFKGRFAFSLETSASTAYLQINNLKNEDTATYFCAREVYYGSRKTAWFAYWGQGTLVTVSA
VL: DLVMSQSPSSLAVSVGERVTMSCKSSQSLLYSNDQKNYLAWYQQIPGQSPKLLIYWASTRESGVPDRFTGSGSGTDFTLTISSVKAEDLAVYFCQQYYSYPPTFGAGTKLELK
notes: also called Clone CL0020096
B4: CL0020210 (antibody, V domains shown)
VH: B3 VH
VL: B3 VL with V19I, S22T, I54L, S99N
notes: also called Clone CL0020210; CL020210
B5: CL0020120 (antibody, V domains shown)
VH: EVQLQQSGPELVRTGASVKISCRASSYSFTDNYIHWVKQTHGRSLEWIGYISGYTGATSYNQKFKGKATFTVDTSSSTAYMQFNSLTSEDSAVYYCARSTMIAPYGMDYWGQGTSVTVSS
VL: DIVMTQSHKFMSTSVGDRVNITCKASQDVVTAVAWYQQKPGQSPKLLIYWASTRHTGVPDRFTGSGSGTDFTLTISNVQSEDLADYFCQQYSRYPLTFGAGTKLELK
notes: also called Clone CL0020120
B6: CL0020127 (antibody, V domains shown)
VH: EVQLQQSGPVLVKPGASVKMSCKASGYKFTDYYMNWVKQSHGKSLEWIGTINPYSGGISYNQKFKGKATLTVDKSSSTAYMELNSLTSEASAVYYCTRRNWDGRYAMDYWGQGTSVTVSS
VL: B5 VL with N20S, V30S, D85E, R93S, L96F, A100G, L106I
notes: also called Clone CL0020127
B7: CL0020206 (antibody, V domains shown)
VH: B6 VH with K28T, T50I, T69I
VL: B5 VL with N20S, C23Y, V30G, T31S, A51T, R93S, L96F, A100G, L106I
notes: also called Clone CL0020206
B8: CL0020113 (antibody, V domains shown)
VH: QIQLVQSGPELKKPGESLKISCKASGYTFTDYAMQWVKQAPGKGLQYMGWINTQTGKPTYADDFKERFVFSLETSASTAYLKINNLKNDDMATYLCARSYGGEYNWIAYWGQGTLVTVSS
VL: DIVMTQTPSSQAVSAGEKVTMNCKSSQSLLYNENKKNYLAWYQQKPGQSPKLLIYWASTRESGVPDRFIGSGSGTDFTLTISSVQAEDLAVYYCQQSYNFPPTFGGGTKLELK
notes: also called Clone CL0020113
B9: CL0020161 (antibody, V domains shown)
VH: EVQLVESGGGLVQPGRSMKLSCAALGFTFSNYYMAWVRQAPRKGLEWVASISTGGDNTYYRDSVKGRFTISRDNAKSTLYMQMDSLRSEDTATYYCVRSFIVGTTGYYFDYWGQGVMVTVSS
VL: DIVLTQSPALAVSLGQRATISCKTNQNVDYYGNNYMHWYQQTPGQQPKLLIYFASNLASGIPARFSGRGSGTDFTLTIDPVEADDTATYYCQQSRNLPTFGGGTKLELK
notes: also called Clone CL0020161
B10: CL0020103 (antibody, V domains shown)
VH: EVQLQQSGPELVKPGASVKISCKTSGYTFTEYTMHWVKESHGKSLEWIGGINPNKGGSSYNQKFKGKATLTVDKSSSTAYMDLRRLTSEDSAVYYCARGGYEYYALDYWGQGTSVTVSS
VL: B3 VL with L2I, A12T, N33R, D34N, I45K, T78S, F93Y, A106G, L112I
notes: also called Clone CL0020103
B11: CL0020162 (antibody, V domains shown)
VH: QIQLVQSGPELKKPGESLKISCKASGYTFTDYAMQWVKQAPEKGLQYMGWINTQTGKPTYADDFKERFVFSLETSATTAYLQINNLKNEDMATYFCVRSYNNYENWFAYWGQGTLVTVSS
VL: DIVMTQSPSSLAVSAGETVTINCKSSQSLLYSGNQKNYLAWYQQKPGQSPKVLIYWASTRQFGVPDRFIGSGSGTDFTLTISSVQAEDLAIYYCQQYYNSPITFGSGTKLEIK
notes: also called Clone CL0020162
B12: CL0020214 (antibody, V domains shown)
VH: QVRLQQSGAELVRPGSSVKLSCKASGYAFSSYWMNWVKQRPGQGLEWIGQIYPGDGDTNYNGNFKGKATLTADNSSSTAYMQLSSLTSEDSAVYFCARRRNGDFGDYAMDYWGQGTSVTVSS
VL: QIVLTQSPAIMSASPGEKVTISCSASSSVSYMCWYQQKPGSSPKPWIYRTSTLASGVPARFSGSGSGTSYSLTISSMEAADAATYYCQHYHSYPFTFGAGTKLELK
notes: also called Clone CL0020214

Each binder was assayed against T1, human TREM2 on the cell surface (assay: cell-based or functional assay).

Row | Binder | NFAT EC50 (nM), plate coated mAb [nM] | Survival EC50 (nM), plate coated mAb, human macrophages [nM] | pSyk activation (human macrophages) EC50 (nM)
1 | B1 | 25.5 | 2 | 5.9
2 | B2 | 98.3 |  | 12
3 | B3 | 16.2 | 1.8 | 30.9
4 | B4 | 11.7 |  | 37.4
5 | B5 | 195 | 17.8 | 24.2
6 | B6 | 20.5 |  | 11.9
7 | B7 | 69.9 |  | 20.7
8 | B8 | 185 | 24.8 | 24.8

What follows are binders tested against T1, human TREM2 on the cell surface (assay: cell binding, human macrophages, dose titration).

Row | Binder | EC50 [nM]
9 | B1 | 0.6
10 | B2 | 1.3
11 | B3 | 14
12 | B4 | 0.9
13 | B5 | 1.6
14 | B6 | 11
15 | B7 | 4.8
16 | B8 | 2.1

Target: T2, human TREM2 full length stalk region …
Assay: ELISA on biotinylated peptide captured by streptavidin; A450 normalised to isotype control
Procedure: (§1) TREM2 antibodies were evaluated for binding to human and mouse TREM2 stalk region peptides. […] Antibody binding to TREM2 stalk peptides was detected using standard sandwich ELISA. Briefly, a 96-well half-area ELISA plate was coated with streptavidin overnight at 4° C. The following day, biotinylated TREM2 stalk peptides diluted in 1% BSA/PBS were added to the plate and incubated for 1 hour. Antibodies diluted in 1% BSA/PBS were then added and incubated for 1 hour. Antibodies bound to peptide were detected with anti-human kappa-HRP secondary antibody (Bethyl Laboratories, Inc.) diluted in 1% BSA/PBS. Plates were assayed by reaction with a detection reagent (One-step TMB Ultra, Thermo) and measurement of absorbance at 450 nm (A450) by standard spectrophotometry instrumentation (BioTek®). Data are shown as normalized values (fold over background where background=isotype control).

Row | Binder | fold over background (A450) [fold]
17 | B1 | 45
18 | B2 | 1.3
19 | B9 | 1.4
20 | B3 | 45
21 | B10 | 56
22 | B4 | 50
23 | B11 | 49
24 | B5 | 1.2
25 | B6 | 1.4
26 | B7 | 1.8
27 | B12 | 1.5
28 | B8 | 47

Target: T3, human TREM2 truncated stalk peptide (aa …)
Assay: as above
Procedure: as §1

Row | Binder | fold over background (A450) [fold]
29 | B2 | 1.1
30 | B9 | 1
31 | B10 | 1.8
32 | B4 | 1.5
33 | B11 | 1.3
34 | B5 | 1.2
35 | B6 | 1.2
36 | B7 | 1.6
37 | B12 | 1.3
38 | B8 | 1.4

Target: T4, mouse TREM2 full length stalk region …
Assay: as above
Procedure: as §1

Row | Binder | fold over background (A450) [fold]
39 | B2 | 1.1
40 | B9 | 1.2
41 | B3 | 45
42 | B10 | 4.1
43 | B4 | 25
44 | B11 | 10
45 | B5 | 1.2
46 | B6 | 1.3
47 | B7 | 1.6
48 | B12 | 1.3

Each binder was assayed against T5, His-tagged human TREM2 ECD (assay: SPR (Biacore), antibody captured via anti-human Fab, recombinant TREM2 ECD injected, 1:1 fit).
Procedure: Surface plasmon resonance (Biacore™ 8K instrument) was used to measure anti-TREM2 antibody affinities for human and cynomolgus TREM2 ECD. Anti-TREM2 antibodies were captured using Human Fab Capture Kit (GE Healthcare Life Sciences, Catalog No. 28958325) on a Biacore Series S CM5 sensor chip (GE Healthcare Life Sciences, Catalog No. 29149604). Serial 3-fold dilutions of recombinant human or cynomolgus TREM2 were injected at a flow rate of 30 μL/min. Antibody binding was monitored for 300 seconds, followed by monitoring of antibody dissociation for 600+seconds in HBS-EP+ running buffer (GE Healthcare Life Sciences, Catalog No. BR100669). The binding response was corrected by subtracting the RU value from a blank flow cell. A 1:1 Languir model of simultaneous fitting of kₒₙ and koff was used for kinetics analysis.

Row | Binder | Kd [nM]
49 | B1 | 4.6
50 | B2 | 25.7
51 | B3 | 5.54
52 | B4 | 6.27
53 | B5 | 4.04
54 | B6 | 3.37
55 | B7 | 1.82
56 | B8 | 7.81
